Experimental data as given in paper PMC6662305, “The basic helix‐loop‐helix transcription factor, OsPIL15, regulates grain size via directly targeting a purine permease gene OsPUP7 in rice”.

T1: OsPIL15-His (Oryza sativa L. cv. Nipponbare, UniProt Q0JNI9 1-637)
T1 sequence: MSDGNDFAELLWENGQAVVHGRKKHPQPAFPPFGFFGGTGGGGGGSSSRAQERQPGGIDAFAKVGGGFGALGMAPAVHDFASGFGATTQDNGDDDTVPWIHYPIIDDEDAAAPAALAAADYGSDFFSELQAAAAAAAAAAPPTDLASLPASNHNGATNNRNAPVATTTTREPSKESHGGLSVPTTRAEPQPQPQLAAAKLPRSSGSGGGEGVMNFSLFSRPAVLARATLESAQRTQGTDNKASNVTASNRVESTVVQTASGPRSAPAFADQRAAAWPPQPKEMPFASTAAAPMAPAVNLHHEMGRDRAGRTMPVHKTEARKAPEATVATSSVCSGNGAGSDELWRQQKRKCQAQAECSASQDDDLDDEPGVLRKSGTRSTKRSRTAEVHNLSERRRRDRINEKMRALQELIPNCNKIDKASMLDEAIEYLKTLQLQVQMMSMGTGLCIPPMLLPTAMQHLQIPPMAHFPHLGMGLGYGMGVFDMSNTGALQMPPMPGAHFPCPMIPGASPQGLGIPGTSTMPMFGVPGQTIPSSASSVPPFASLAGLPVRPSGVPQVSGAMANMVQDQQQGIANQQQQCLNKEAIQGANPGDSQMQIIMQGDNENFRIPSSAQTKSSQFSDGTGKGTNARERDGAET


Key:
OsPIL15-His [1] = target: T1, OsPIL15-His; experiment: EMSA; EMSA: Beyotime kit binding buffer (composition, salt and pH not stated), 30 min at room temperature, 6% native polyacrylamide gel; details: protein: recombinant; tags: His (pET28a); chain copies: 2; label: 3' biotin; blunt
OsPIL15-His [2] = target: T1, OsPIL15-His; experiment: EMSA; strong signal; EMSA: Beyotime kit binding buffer (composition, salt and pH not stated), 30 min at room temperature, 6% native polyacrylamide gel; details: protein: recombinant; tags: His (pET28a); chain copies: 2; label: 3' biotin; blunt

Row | Binder | binding result (OsPIL15-His [1]) | binding result (OsPIL15-His [2])
1 | Mutant probe 2 (dsDNA) DNA 1: AATACAGGCAGCCCTATCTC DNA 2: GAGATAGGGCTGCCTGTATT | no binding | 
2 | G-box probe (dsDNA) DNA 1: TCTAATGACACGTGAGCAAGTCC DNA 2: GGACTTGCTCACGTGTCATTAGA | no binding | 
3 | Mutant probe 1 (dsDNA) DNA 1: AATACAGCCGCGACTATCTC DNA 2: GAGATAGTCGCGGCTGTATT | no binding | 
4 | N2-box probe (dsDNA) DNA 1: TCTAATGACACGAGAGCAAGTCC DNA 2: GGACTTGCTCTCGTGTCATTAGA | no binding | 
5 | N1-box probe (dsDNA) DNA 1: TCTAATGACACGCGAGCAAGTCC DNA 2: GGACTTGCTCGCGTGTCATTAGA |  | binds
